Test results published in article PMC7199863 (The Journal of Cell Biology, 2020).

Molecular target: T1, FLAG-tagged fragment of CC-afadin (coiled-coil region of afadin, aa 1386-1595) (mouse)
T1 chain: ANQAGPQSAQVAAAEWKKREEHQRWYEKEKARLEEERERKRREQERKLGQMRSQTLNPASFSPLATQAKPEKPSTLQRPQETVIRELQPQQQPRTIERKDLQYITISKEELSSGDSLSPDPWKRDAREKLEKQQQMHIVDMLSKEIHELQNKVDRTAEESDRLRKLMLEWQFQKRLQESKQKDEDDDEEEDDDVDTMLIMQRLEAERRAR
Test: sucrose density gradient centrifugation

B1: αE-catenin fragment MIII-C (aa 509-906) (domain or fragment)
chain: DDFLAVSENHILEDVNKCVIALQEKDVDGLDRTAGAIRGRAARVIHVVTSEMDNYEPGVYTEKVLEATKLLSNTVMPRFTEQVEAAVEALSSDPAQPMDENEFIDASRLVYDGIRDIRKAVLMIRTPEELDDSDFETEDFDVRSRTSVQTEDDQLIAGQSARAIMAQLPQEQKAKIAEQVASFQEEKSKLDAEVSKWDDSGNDIIVLAKQMCMIMMEMTDFTRGKGPLKNTSDVISAAKKIAEAGSRMDKLGRTIADHCPDSACKQDLLAYLQRIALYCHQLNICSKVKAEVQNLGGELVVSGVDSAMSLIQAAKNLMNAVVQTVKASYVASTKYQKSQGMASLNLPAVSWKMKAPEKKPLVKREKQDETQTKIKRASQKKHVNPVQALSEFKAMDSI
- stoichiometry N: 1
